Biological target: CR3022 IgG antibody

Substance | assay signal (TR-FRET ratio) (TR-FRET ratio)
anti-IgG Nanobody (Chromotek Nano-Secondary alpaca anti-human IgG) (VHH) | 0.6
anti-IgG antibody (Bethyl, A80-104A) | 0.25
